Data: the supplement of paper PMC7877785
± gives the uncertainty stated by the source.

Assay: self-splicing fitness, log relative to wild type (ln ratio); higher = more splicing; Tetrahymena group I intron in knt gene, E. coli kanamycin selection, DiMSum; sequences stand for … in CUCUCU…GGAGGGAAAAGUUAUCAGGCAUGCACCUGGUAGCUAGUCUUUAAACCAAUAGAUUGCAUCGGUUUAAAAGGCAAGACCGUCAAAUUGCGGGAAAGGGGUCAACAGCCGUUCAGUACCAAGUCUCAGGGGAAACUUUGAGAUGGCCUUGCAAAGGGUAUGGUAAUAAGCUGACGGACAUGGUCCUAACCACGCAGCCAAGUCCUAAGUCAACAGAUCUUCUGUUGAUAUGGAUGCAGUUCACAGACUAAAUGUCGGUCGGGGAAGAUGUAUUCUUCUCAUAAGAUAUAGUCGGACCUCUCCUUAAUGGGAGCUAGCGGAUGAAGUGAUGCAACACUGGAGCCGCUGGGAACUAAUUUGUAUGCGAAAGUAUAUUGAUUAGUUUUGGAGUACUCGUGGUCG
Method in brief: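 Fitness was computed with DiMSum as the error-weighted combination of replicate fold changes, kanamycin versus none, each normalised to wild type. The library randomised all eight intron nucleotides of the P1ex region, with the intron placed in the knt kanamycin-resistance gene on pET-22b(+) in E. coli BL21(DE3). Six replicate transformations were grown overnight at 37°C or 30°C on LB agar with or without 25 μg/mL kanamycin, plus 100 μg/mL carbenicillin, 50 μM IPTG and 0.2% rhamnose. Pooled colonies were amplicon-sequenced on an Illumina HiSeq 2500.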

Sequence | self-splicing fitness (ln) (30 °C) | self-splicing fitness (ln) (37 °C)
AAAUAGCAAUAUUACGCUCG | -0.663 ± 0.12 | -0.925 ± 0.15
AAAUAGCAAUAUUACGCUUC | -3.19 ± 0.3 | -2.99 ± 0.3
AAAUAGCAAUAUUACGGAAG | -3.63 ± 0.25 | -2.15 ± 0.18
AAAUAGCAAUAUUACGGAGU | -3.7 ± 0.2 | -2.61 ± 0.15
AAAUAGCAAUAUUACGGCCC | -0.752 ± 0.16 | -0.254 ± 0.22
AAAUAGCAAUAUUACGGCCU | -0.218 ± 0.095 | 0.661 ± 0.17
AAAUAGCAAUAUUACGGCGC | -1.11 ± 0.15 | -0.73 ± 0.15
AAAUAGCAAUAUUACGGCUC | -0.691 ± 0.14 | 0.393 ± 0.18
AAAUAGCAAUAUUACGGGCU | -2.04 ± 0.15 | -0.367 ± 0.13
AAAUAGCAAUAUUACGGUUG | -1.88 ± 0.094 | -1.33 ± 0.12
AAAUAGCAAUAUUACGUCCC | -0.4 ± 0.21 | -1.33 ± 0.28
AAAUAGCAAUAUUACGUGCA | -1.23 ± 0.063 | -0.426 ± 0.095
AAAUAGCAAUAUUACGUGCC | -1.46 ± 0.084 | -0.919 ± 0.09
AAAUAGCAAUAUUACGUUCG | -1.17 ± 0.088 | -0.371 ± 0.13
AAAUAGCAAUAUUACGUUUC | -3.46 ± 0.39 | 
AACAAGCAAUAUUACGAAAA | -1.7 ± 0.15 | -2.39 ± 0.19
AACAAGCAAUAUUACGACAA | -1.28 ± 0.12 | -1.18 ± 0.098
AACAAGCAAUAUUACGACGA | -1.15 ± 0.07 | -0.468 ± 0.074
AACAAGCAAUAUUACGACGC | -0.761 ± 0.066 | -0.386 ± 0.076
AACAAGCAAUAUUACGACUA | -0.0433 ± 0.095 | 0.555 ± 0.1
AACAAGCAAUAUUACGAUAG | -3.24 ± 0.17 | -2.24 ± 0.18
AACAAGCAAUAUUACGCAUG | -1.7 ± 0.082 | -0.726 ± 0.1
AACAAGCAAUAUUACGCGCU | -0.49 ± 0.07 | -0.454 ± 0.078
AACAAGCAAUAUUACGCUAG | -3.74 ± 0.19 | -1.98 ± 0.15

Sequence | self-splicing fitness (ln) (30 °C) | self-splicing fitness (ln) (37 °C)
AACAAGCAAUAUUACGCUGG | -2.25 ± 0.081 | -1.04 ± 0.1
AACAAGCAAUAUUACGCUUU | -3.18 ± 0.15 | -2.77 ± 0.18
AACAAGCAAUAUUACGGAAA | -3.08 ± 0.15 | -1.34 ± 0.11
AACAAGCAAUAUUACGGCUC | -0.27 ± 0.071 | 0.236 ± 0.1
AACAAGCAAUAUUACGGGGG | -2.94 ± 0.17 | -1.86 ± 0.17
AACAAGCAAUAUUACGGUAC | -3.04 ± 0.16 | -1.99 ± 0.18
AACAAGCAAUAUUACGGUUA | -0.694 ± 0.058 | -0.134 ± 0.064
AACAAGCAAUAUUACGUAGA | -2.88 ± 0.089 | -0.993 ± 0.077
AACAAGCAAUAUUACGUAGU | -2.37 ± 0.11 | -1.47 ± 0.12
AACAAGCAAUAUUACGUCCU | 0.214 ± 0.064 | 0.0455 ± 0.074
AACAAGCAAUAUUACGUGAA | -2.08 ± 0.082 | -0.353 ± 0.081
AACAAGCAAUAUUACGUGGG | -2.93 ± 0.12 | -2.95 ± 0.13
AACAAGCAAUAUUACGUGUU | -4.01 ± 0.19 | -2.05 ± 0.12
AACAAGCAAUAUUACGUUAU | -3.49 ± 0.16 | -2.13 ± 0.12
AACAAGCAAUAUUACGUUCU | -2.01 ± 0.064 | -1.16 ± 0.094
AACCAGCAAUAUUACGAAAA | -1.54 ± 0.099 | -1.3 ± 0.1
AACCAGCAAUAUUACGAAAC | -2.26 ± 0.14 | -0.477 ± 0.16
AACCAGCAAUAUUACGAAGU | -2.26 ± 0.066 | -0.559 ± 0.069
AACCAGCAAUAUUACGAGCU | -2.52 ± 0.087 | -1.82 ± 0.1
AACCAGCAAUAUUACGAUUA | -0.368 ± 0.056 | -0.164 ± 0.067
AACCAGCAAUAUUACGAUUC | -1.63 ± 0.071 | -0.153 ± 0.084
AACCAGCAAUAUUACGCAUA | -0.88 ± 0.078 | 0.309 ± 0.089
AACCAGCAAUAUUACGCAUG | -1.7 ± 0.082 | -0.971 ± 0.083
AACCAGCAAUAUUACGCCCA | -0.618 ± 0.22 | -0.865 ± 0.18

Sequence | self-splicing fitness (ln) (30 °C) | self-splicing fitness (ln) (37 °C)
AACCAGCAAUAUUACGCCGA | -0.252 ± 0.11 | -0.169 ± 0.11
AACCAGCAAUAUUACGCCUU | -0.506 ± 0.053 | 0.096 ± 0.07
AACCAGCAAUAUUACGCGAG | -1.21 ± 0.063 | -0.492 ± 0.072
AACCAGCAAUAUUACGCGUG | -1.09 ± 0.057 | -0.149 ± 0.063
AACCAGCAAUAUUACGCUUU | -1.42 ± 0.084 | -1.05 ± 0.09
AACCAGCAAUAUUACGGCAG | -1.02 ± 0.058 | -0.17 ± 0.08
AACCAGCAAUAUUACGGCUC | -1.34 ± 0.1 | -0.82 ± 0.11
AACCAGCAAUAUUACGGUAA | -0.741 ± 0.051 | -0.682 ± 0.058
AACCAGCAAUAUUACGGUGA | -1.19 ± 0.065 | -0.538 ± 0.078
AACCAGCAAUAUUACGUAAC | -2.5 ± 0.094 | -1.15 ± 0.11
AACCAGCAAUAUUACGUAGC | -2.7 ± 0.089 | -2.17 ± 0.11
AACCAGCAAUAUUACGUCGU | -1.26 ± 0.046 | -0.25 ± 0.058
AACCAGCAAUAUUACGUCUC | -1.23 ± 0.056 | -0.774 ± 0.076
AACCAGCAAUAUUACGUGAG | -0.744 ± 0.04 | -0.39 ± 0.067
AACCAGCAAUAUUACGUGUU | -3.59 ± 0.11 | -2.47 ± 0.12
AACGAGCAAUAUUACGAACU | -1.11 ± 0.13 | -1.42 ± 0.16
AACGAGCAAUAUUACGAGUU | -3.48 ± 0.32 | -2.1 ± 0.22
AACGAGCAAUAUUACGAUGG | -3.27 ± 0.16 | -3 ± 0.26
AACGAGCAAUAUUACGCAGA | -4.04 ± 0.3 | -2.18 ± 0.23
AACGAGCAAUAUUACGCCAA | -2.5 ± 0.19 | -3.1 ± 0.22
AACGAGCAAUAUUACGCCCG | -1.98 ± 0.32 | -0.148 ± 0.33
AACGAGCAAUAUUACGCCCU | -1.66 ± 0.12 | -0.745 ± 0.17
AACGAGCAAUAUUACGCCGG | -2.42 ± 0.4 | -0.855 ± 0.34
AACGAGCAAUAUUACGCCUA | -3.36 ± 0.41 | -1.08 ± 0.3

Sequence | self-splicing fitness (ln) (30 °C) | self-splicing fitness (ln) (37 °C)
AACGAGCAAUAUUACGGAUU | -2.3 ± 0.14 | -1.4 ± 0.19
AACGAGCAAUAUUACGGCAG |  | -3.6 ± 0.36
AACGAGCAAUAUUACGGUGC | -3.15 ± 0.3 | -2.69 ± 0.33
AACGAGCAAUAUUACGUCAC | -4.01 ± 0.23 | -1.83 ± 0.22
AACGAGCAAUAUUACGUCGG | -3.25 ± 0.26 | -0.594 ± 0.15
AACGAGCAAUAUUACGUCUA | -2.06 ± 0.17 | -0.756 ± 0.12
AACGAGCAAUAUUACGUGUG | -3.18 ± 0.13 | -2.57 ± 0.14
AACGAGCAAUAUUACGUGUU |  | -3.62 ± 0.34
AACGAGCAAUAUUACGUUCC | -3.09 ± 0.36 | -2.41 ± 0.3
AACGAGCAAUAUUACGUUGG | -3.75 ± 0.24 | -2.86 ± 0.25
AACUAGCAAUAUUACGACUC | -0.19 ± 0.057 | 0.0401 ± 0.079
AACUAGCAAUAUUACGAUCG | -0.822 ± 0.074 | 0.0491 ± 0.1
AACUAGCAAUAUUACGAUGU | -0.797 ± 0.082 | -0.157 ± 0.12
AACUAGCAAUAUUACGCUCA | -0.21 ± 0.1 | 0.239 ± 0.14
AACUAGCAAUAUUACGGAAG | -2.57 ± 0.13 | -1.49 ± 0.12
AACUAGCAAUAUUACGGGGU | -3.93 ± 0.3 | -2.34 ± 0.18
AACUAGCAAUAUUACGUCCU | -0.111 ± 0.092 | 1.04 ± 0.12
AACUAGCAAUAUUACGUCGG | -3.57 ± 0.14 | -2.26 ± 0.16
AACUAGCAAUAUUACGUGCG | -0.832 ± 0.067 | -0.0538 ± 0.078
AACUAGCAAUAUUACGUUCG | -3.36 ± 0.26 | -1.79 ± 0.16
AAGAAGCAAUAUUACGAAUA | -1.86 ± 0.17 | -0.73 ± 0.12
AAGAAGCAAUAUUACGACCU | 0.116 ± 0.099 | -0.338 ± 0.11
AAGAAGCAAUAUUACGACGA | -0.362 ± 0.093 | -0.274 ± 0.099
AAGAAGCAAUAUUACGACGC | -0.655 ± 0.12 | -0.0572 ± 0.17
